{
  "source": "paper PMC9706563",
  "about": "(Journal of Medicinal Chemistry, 2022)",
  "binders": {"B1": {"name": "fluorescently labeled SRVVPGQFDDADSSD RioK1 sequence (peptide)", "peptide": "SRVVPGQFDDADSSD", "modifications": "not fully specified; also: FITC label, position not given here", "notes": "also called S1; source: synthetic peptide"}},
  "target": "T1, PRMT5-MEP50 complex (full-length, purified) (human | , UniProt O14744 1-637; Q9BQA1 1-342)",
  "T1 construct": "Protein arginine methyltransferase 5 (PRMT5), human, of the full-length PRMT5-MEP50 complex; MEP50 (WDR77), of the full-length PRMT5-MEP50 complex; also called native PRMT5-MEP50; PRMT5-MEP50 methyltransferase; copies: 4 + 4",
  "T1 sequence (O14744 whole entry, chain 1 of 2)": "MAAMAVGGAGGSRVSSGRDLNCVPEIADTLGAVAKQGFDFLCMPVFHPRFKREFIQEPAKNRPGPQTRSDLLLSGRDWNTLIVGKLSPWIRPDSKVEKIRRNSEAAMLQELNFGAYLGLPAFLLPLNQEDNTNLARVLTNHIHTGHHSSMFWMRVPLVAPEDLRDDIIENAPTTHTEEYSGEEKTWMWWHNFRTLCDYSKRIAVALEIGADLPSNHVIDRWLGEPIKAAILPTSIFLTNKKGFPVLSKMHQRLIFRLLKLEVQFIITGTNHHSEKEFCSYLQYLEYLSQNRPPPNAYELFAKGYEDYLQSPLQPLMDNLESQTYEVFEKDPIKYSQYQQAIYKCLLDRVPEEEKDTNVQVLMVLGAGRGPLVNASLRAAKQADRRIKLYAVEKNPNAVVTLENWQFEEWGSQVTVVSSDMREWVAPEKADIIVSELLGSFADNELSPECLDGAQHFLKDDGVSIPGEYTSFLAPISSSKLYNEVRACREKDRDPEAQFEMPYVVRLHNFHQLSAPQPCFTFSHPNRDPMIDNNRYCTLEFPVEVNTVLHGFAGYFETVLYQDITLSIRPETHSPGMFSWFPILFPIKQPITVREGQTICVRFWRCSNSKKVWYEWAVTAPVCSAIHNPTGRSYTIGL",
  "T1 sequence (Q9BQA1 whole entry, chain 2 of 2)": "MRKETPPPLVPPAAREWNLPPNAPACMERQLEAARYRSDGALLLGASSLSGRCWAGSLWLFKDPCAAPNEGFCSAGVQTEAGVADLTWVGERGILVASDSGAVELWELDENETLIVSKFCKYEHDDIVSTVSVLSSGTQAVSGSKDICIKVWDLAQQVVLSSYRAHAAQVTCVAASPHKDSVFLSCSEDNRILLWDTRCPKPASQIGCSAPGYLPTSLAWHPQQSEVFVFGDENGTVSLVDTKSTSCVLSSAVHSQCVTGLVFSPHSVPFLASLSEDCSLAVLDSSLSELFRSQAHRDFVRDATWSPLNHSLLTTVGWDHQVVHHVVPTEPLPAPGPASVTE",
  "experiment": "fluorescence polarisation; competitive; tracer fluorescently labeled … (S1) 1 nM, PRMT5-MEP50 600 nM, unlabeled peptide titrated in two-fold dilutions; 50 mM HEPES, 250 mM NaCl, 1 mM TCEP, 0.01% Tween 20, pH 8.0, room temperature",
  "conditions": "both partners purified",
  "note": "Ends that are not written are not given here.",
  "data": [
    {"binder": "B1", "values": [
      {"measurement": "binding result", "value": "binds"}
    ]}
  ]
}
